B1: HDV Ribozyme (parent)
chain: GGCCGGCAUGGUCCCAGCCUCCUCGCUGGCGCCGGCUGGGCAACAUUCCGAGGGGACCGUCCCCUCGGUAAUGGCGAAUGGGACCCA

Self-cleavage data for 167 variants are collected here from the RNAGym collection of RNA variant scans (doi:10.7554/elife.80360).

The variants in the data set derive from B1. In words: self-cleavage, relative activity (ratio to wild type); higher = more cleavage; co-transcriptional.
Turning to G59U G80U, the self-cleavage amounted to 0.19.
For the variant C58G C85A, the self-cleavage is 1.05.
As for C57G G76U, the self-cleavage was determined as 0.984.
As to C57G G76C, the self-cleavage came to 0.895.
Next, C57G G76A: 1.04.
Turning to C58U G68C, the self-cleavage was 0.95.
Take C58U G68U: the self-cleavage turned out to be 1.07.
Next, G59U U69A: 0.85.
On to C58A U60G, for which the self-cleavage was 0.831.
As to C58A U60C, the self-cleavage worked out at 1.17.
On to C58G C63G, for which the self-cleavage was found to be 0.91.
On to G59A C84A, for which the self-cleavage was found to be 0.929.
For C58U C63G, the self-cleavage turned out to be 0.831.
For the variant C58U C63A, the self-cleavage was 0.986.
For C58U A78U the value was 0.277.
Consider C58U A78C, for which the self-cleavage was 0.305.
With C57G G81A, the self-cleavage worked out at 0.509.
As for G59A U69C, the self-cleavage stood at 0.846.
As for C57G C84A, the self-cleavage amounted to 0.933.
C57G C84U: the self-cleavage is 0.721.
Regarding G59A C86U, the self-cleavage was 0.793.
Regarding G59A C86G, the self-cleavage is 1.01.
For G59U A78U the value was 0.285; for G59U A78C, 0.113; for C58U C84A, 1.02.
With C58U C84U, the self-cleavage stood at 0.731.
As to C57G U69A, the self-cleavage came to 0.767.
For C57G U69C, the self-cleavage came to 1.06.
For C57G U69G the value was 1.2; for G59U A71G, 1.13.
As for C58A C62G, the self-cleavage stood at 1.19.
As for C58A C62U, the self-cleavage was determined as 1.08.
Consider C58U U69G, for which the self-cleavage is 0.965.
In the case of G59C U65C, the self-cleavage stood at 1.01.
Next, C57G C86U: 0.815.
Regarding C57G C86A, the self-cleavage stood at 0.656.
Turning to C57G C86G, the self-cleavage was found to be 0.831.
For C58G G74C the value was 0.101.
For C58U U60G, the self-cleavage came out at 1.2.
Regarding C58U G82C, the self-cleavage stood at 0.386.
C58U G82A: the self-cleavage came out at 0.906.
On to C58A C85A, for which the self-cleavage worked out at 0.877.
Turning to C58A C85G, the self-cleavage came to 0.957.
G59A G68C: the self-cleavage was 0.969.
As to G59A G68U, the self-cleavage was 0.92.
As to G59C C84U, the self-cleavage amounted to 0.774.
With G59C C84A, the self-cleavage was 0.912.
Consider C58G G80U, for which the self-cleavage is 0.0903.
For C57U A87U, the self-cleavage amounted to 1.01.
In the case of C57U G81A, the self-cleavage is 0.415.
As for C57U G81C, the self-cleavage was 0.0604.
As for C57U G68U, the self-cleavage is 1.17.
Consider C57U G68C, for which the self-cleavage came to 0.85.
Next, C57U G68A: 1.02.
Next, C57U C84U: 0.856; C57U C84A: 0.748; C57U U79G: 0.73.
Consider C57U U79A, for which the self-cleavage worked out at 0.752.
Regarding C57G G73C, the self-cleavage was 0.495.
C57G G73A: the self-cleavage was found to be 0.658.
As to G59U G73U, the self-cleavage amounted to 0.516.
Take G59U G73C: the self-cleavage was 0.614.
For the variant G59A U65G, the self-cleavage was determined as 0.801.
For G59A U65C the value was 1.14; for G59C A87C, 1.08.
With G59C A87G, the self-cleavage came to 0.99.
Regarding C58G G68A, the self-cleavage is 1.03.
Next, C58G G68C: 0.748; C58G G82A: 0.277; C58G G82C: 0.302.
For G59U G82C the value was 0.228; for G59U G82A, 0.338.
Consider G59A C66G, for which the self-cleavage was 1.11.
As to G59A C66U, the self-cleavage stood at 0.849.
Turning to C58A G80C, the self-cleavage came out at 0.0707.
Consider G59U A83C, for which the self-cleavage came to 0.34.
As for C57U G67A, the self-cleavage was 0.906.
For G59A C85G the value was 1.13.
For the variant G59A C85A, the self-cleavage was 1.1.
Turning to G59A C61G, the self-cleavage was found to be 1.07.
For the variant G59A C61U, the self-cleavage is 1.11.
Consider C58A A77U, for which the self-cleavage stood at 0.78.
On to C58A A77C, for which the self-cleavage stood at 0.482.
Next, C58A A77G: 1.09; G59A C62G: 0.502.
Next, G59A C62A: 0.678.
Regarding C58U C86U, the self-cleavage worked out at 0.969.
Next, C58U C86G: 0.895.
On to C58U C86A, for which the self-cleavage amounted to 1.01.
Take C57G G59A: the self-cleavage was 0.997.
Next, C57G G59C: 0.969.
For C57G G59U, the self-cleavage stood at 0.978.
Turning to G59C A78C, the self-cleavage is 0.179.
In the case of G59C A78G, the self-cleavage stood at 0.778.
Take C57G G82C: the self-cleavage turned out to be 0.306.
In the case of C57G G82U, the self-cleavage turned out to be 0.317.
In the case of C57U G59A, the self-cleavage came out at 1.07.
Take C57U G59C: the self-cleavage was found to be 0.89.
For the variant C57U A71C, the self-cleavage worked out at 0.923.
On to C57U A71U, for which the self-cleavage was 1.08.
For C57U C86U the value was 0.991; for C57U C86G, 0.862; for G59C A83G, 0.917.
For the variant C58A G82A, the self-cleavage is 0.614.
Next, C57U U60G: 0.702; C57U U60C: 0.906; C57G U72C: 0.587.
As to C57G U72A, the self-cleavage came out at 0.635.
In the case of G59C C62U, the self-cleavage amounted to 1.12.
Next, C58U G76U: 1.02; C58U G76C: 0.935.
On to C58U G76A, for which the self-cleavage is 1.08.
Regarding G59U C85U, the self-cleavage came to 0.935.
For the variant G59U C85A, the self-cleavage turned out to be 0.749.
As to G59U C85G, the self-cleavage came out at 0.695.
Regarding G59U C61U, the self-cleavage amounted to 0.997.
Take G59U C75U: the self-cleavage stood at 0.145.
In the case of C58A C66A, the self-cleavage came out at 0.959.
For C57G G74A the value was 0.277.
For C57G G74U, the self-cleavage worked out at 0.388.
Consider C58G U65G, for which the self-cleavage turned out to be 1.16.
Next, C58G U65C: 0.782; G59A G67A: 0.979.
As to C57U C63A, the self-cleavage turned out to be 1.01.
Take G59C C63G: the self-cleavage is 0.909.
For C58G G81C the value was 0.364; for C58G G81U, 0.26.
Next, C57U C66U: 0.87; C58A U69G: 1.04; C58A U69A: 1.07.
For G59C U72C the value was 0.917; for G59C U72G, 0.675.
On to G59C U72A, for which the self-cleavage came out at 0.773.
C57G G68U: the self-cleavage was determined as 1.01.
Next, C57G G68C: 0.831; C58A G67A: 0.745.
For G59U C86A the value was 0.855.
Next, G59U C86G: 0.975.
For C58G C61A, the self-cleavage stood at 1.14.
Take G59A G82A: the self-cleavage worked out at 0.466.
For the variant G59A G82C, the self-cleavage came out at 0.208.
C57U U69G: the self-cleavage came to 1.27.
Take G59A U60C: the self-cleavage worked out at 1.12.
With G59A U60G, the self-cleavage was 0.956.
For the variant G59U G67C, the self-cleavage was found to be 0.963.
As for C58G C75A, the self-cleavage came to 0.196.
For C58G C75U the value was 0.122.
G59U G68C: the self-cleavage is 0.973.
For G59A A78U, the self-cleavage was found to be 0.346.
As to G59A A78G, the self-cleavage worked out at 0.631.
For G59U U60A the value was 1.21.
As to G59C G81U, the self-cleavage was 0.415.
In the case of C58A G74C, the self-cleavage is 0.324.
For C58A C75U the value was 0.158; for C58A C75A, 0.201; for C58U A71U, 1.16.
As for G59A C63A, the self-cleavage was 1.07.
Consider G59C G68A, for which the self-cleavage worked out at 0.906.
C58U C85U: the self-cleavage was found to be 0.945.
Turning to C58U C85G, the self-cleavage was determined as 1.07.
On to C57G C66G, for which the self-cleavage was 1.08.
Take C58A U72A: the self-cleavage worked out at 0.883.
In the case of C58A U72C, the self-cleavage was found to be 0.802.
Regarding C58A U72G, the self-cleavage is 1.09.
With C58A C86A, the self-cleavage was 1.19.
In the case of C58A C86G, the self-cleavage was found to be 0.909.
Regarding C58U C64A, the self-cleavage is 0.867.
